Assays:
[1] = biological target: human LTβR on A375 cells (human, UniProt P36941 31-435); assay: cell-based or functional assay
[2] = biological target: T1, human FAP on HEK293-hFAP cells (human, UniProt Q12884 1-760); assay: flow cytometry on HEK293-hFAP cells, 1 µg protein, anti-human IgG detection
T1 construct: whole, on cells; also called human FAP-expressing cell line
T1 sequence (looked up): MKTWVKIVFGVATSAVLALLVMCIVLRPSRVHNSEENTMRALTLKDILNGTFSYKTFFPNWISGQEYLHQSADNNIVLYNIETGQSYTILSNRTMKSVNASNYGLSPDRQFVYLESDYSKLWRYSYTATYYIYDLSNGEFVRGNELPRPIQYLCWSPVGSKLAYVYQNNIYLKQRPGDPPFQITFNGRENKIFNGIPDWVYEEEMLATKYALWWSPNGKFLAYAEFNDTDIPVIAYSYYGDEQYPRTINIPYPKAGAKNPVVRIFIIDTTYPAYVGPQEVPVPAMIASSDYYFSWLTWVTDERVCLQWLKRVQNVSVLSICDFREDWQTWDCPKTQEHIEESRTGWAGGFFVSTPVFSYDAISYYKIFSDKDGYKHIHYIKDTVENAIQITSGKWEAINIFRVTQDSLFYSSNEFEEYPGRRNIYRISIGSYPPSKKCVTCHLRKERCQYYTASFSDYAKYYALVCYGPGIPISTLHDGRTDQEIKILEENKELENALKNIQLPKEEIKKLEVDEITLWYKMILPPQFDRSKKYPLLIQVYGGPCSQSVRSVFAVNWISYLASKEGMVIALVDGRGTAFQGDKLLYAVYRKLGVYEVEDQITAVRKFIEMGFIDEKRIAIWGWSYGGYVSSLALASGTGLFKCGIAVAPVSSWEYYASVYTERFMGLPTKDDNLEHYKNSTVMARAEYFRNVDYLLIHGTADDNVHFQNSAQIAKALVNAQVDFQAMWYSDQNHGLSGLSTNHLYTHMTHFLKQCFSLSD
Experimental: Specifically, the cell line was prepared by suspending in a FACS buffer solution at 1×10⁵ cells/100 μL, and treated with 1 μg each of T3.10, T3.01, T3.05, T3.06, T3.14, and T3.18. The cells were washed twice with a FACS buffer solution. The cells were stained with an anti-human IgG antibody (Biolegend). The negative control sample was stained only with an anti-human IgG antibody (Biolegend). The expression ratio of the stained cells was measured using BD LSR and analyzed using FlowJo software.

[3] = biological target: T2, recombinant human lymphotoxin beta receptor (LTβR) (human, UniProt P36941 28-227, limits assumed); assay: SPR, human LTβR immobilised on CM5, fusion protein as analyte, 1:1 binding model
T2 construct: neither construct is described; also called human LTβR; recombinant human LTβR protein
Experimental: Specifically, the surface of the CM5 chip was activated with a 1:1 mixture of […], and 5 μg/mL of human LTβR was immobilized for 60 seconds at a rate of 10 μL/min. The remaining active ester groups were blocked with 1 M ethanolamine. […] The diluted fusion proteins were reacted at a rate of 30 μL/min. The association and dissociation times were 180 seconds and 400 seconds, respectively. After the dissociation step, stabilization was performed for 60 seconds, and then the regeneration step was performed for 30 seconds with a 10 mM glycine pH 1.5 solution at a rate of 30 μL/min.

[4] = biological target: T3, human DcR3 (human, UniProt O95407 30-300); assay: SPR, human DcR3 immobilised on CM5, fusion protein as analyte, 1:1 binding model
T3 construct: also called LIGHT receptor DcR3
T3 sequence (looked up): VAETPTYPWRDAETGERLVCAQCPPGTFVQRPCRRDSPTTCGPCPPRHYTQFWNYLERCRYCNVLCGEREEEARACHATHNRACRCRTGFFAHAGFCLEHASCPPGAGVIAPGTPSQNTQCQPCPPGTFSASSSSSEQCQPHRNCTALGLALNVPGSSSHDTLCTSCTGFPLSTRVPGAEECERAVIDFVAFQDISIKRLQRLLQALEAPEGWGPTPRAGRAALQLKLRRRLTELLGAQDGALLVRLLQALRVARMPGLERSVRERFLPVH
Experimental: Specifically, the surface of the CM5 chip was activated with a 1:1 mixture of […], and 5 to 6 μg/mL of human DcR3 was immobilized for 60 seconds at a rate of 10 μL/min. The remaining active ester groups were blocked with 1 M ethanolamine. T3.01, T3.07, T3.09, T3.14, and T3.18 were each diluted to 50 nM or 200 nM in 1×HBS-EP+buffer solution and diluted by serial dilution. The diluted fusion proteins were reacted at a rate of 30 μL/min. The association and dissociation times were 180 seconds and 400 seconds, respectively. After the dissociation step, stabilization was performed for 60 seconds, and then the regeneration step was performed for 30 seconds with a 10 mM glycine pH 1.5 solution at a rate of 30 μL/min.

T2 sequence (P36941 28-227 limits assumed): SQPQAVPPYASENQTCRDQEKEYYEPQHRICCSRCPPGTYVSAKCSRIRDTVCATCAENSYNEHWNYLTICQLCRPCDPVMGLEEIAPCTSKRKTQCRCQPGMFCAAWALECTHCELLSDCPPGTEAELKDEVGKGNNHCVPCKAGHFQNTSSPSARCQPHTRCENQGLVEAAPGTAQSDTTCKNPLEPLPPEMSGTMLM
human LTβR on A375 cells, sequence (P36941 31-435): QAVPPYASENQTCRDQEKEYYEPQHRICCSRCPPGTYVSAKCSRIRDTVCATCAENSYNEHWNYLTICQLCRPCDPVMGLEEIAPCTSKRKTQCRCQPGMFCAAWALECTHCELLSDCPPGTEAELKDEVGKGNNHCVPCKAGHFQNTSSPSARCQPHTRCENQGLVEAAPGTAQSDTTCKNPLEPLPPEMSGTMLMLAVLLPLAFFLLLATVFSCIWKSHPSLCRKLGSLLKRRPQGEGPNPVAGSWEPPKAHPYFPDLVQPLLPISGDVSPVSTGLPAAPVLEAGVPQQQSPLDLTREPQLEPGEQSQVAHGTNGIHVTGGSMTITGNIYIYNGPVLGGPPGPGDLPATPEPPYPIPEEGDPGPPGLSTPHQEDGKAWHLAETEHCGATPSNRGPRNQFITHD

B1: T3.01 (anti-hu FAP/hu scLIGHT3, hu IgG1 DANG) (bispecific antibody)
heavy: QVQLVQSGAEVKKPGASVKVSCKTSRYTFTEYTIHWVRQAPGQRLEWIGGINPNNGIPNYNQKFKGRVTITVDTSASTAYMELSSLRSEDTAVYYCARRRIAYGYDEGHAMDYWGQGTLVTVSSASTKGPSVFPLAPSSKSTSGGTAALGCLVKDYFPEPVTVSWNSGALTSGVHTFPAVLQSSGLYSLSSVVTVPSSSLGTQTYICNVNHKPSNTKVDKKVEPKSCDKTHTCPPCPAPELLGGPSVFLFPPKPKDTLMISRTPEVTCVVVAVSHEDPEVKFNWYVDGVEVHNAKTKPREEQYGSTYRVVSVLTVLHQDWLNGKEYKCKVSNKALPAPIEKTISKAKGQPREPQVYTLPPSRDELTKNQVSLWCLVKGFYPSDIAVEWESNGQPENNYKTTPPVLDSDGSFFLYSKLTVDKSRWQQGNVFSCSVMHEALHNHYTQKSLSLSPGK
light: not shown
chain: not shown
notes: Knob-into-hole heterodimer: one anti-FAP Fab arm and one single-chain human LIGHT (91-240) homotrimer arm
- IL-8 secretion of A375 cells, EC50 (FIG. 15a) [1]: 0.0368 nM
- IL-8 secretion of A375 cells, EC50 (FIG. 15b) [1]: 0.0469 nM
- percent of cells bound [2]: ≥ 99%
- Kd [3]: 0.928 nM
- koff [3]: 0.000321 s⁻¹
- kon [3]: 346000 M⁻¹ s⁻¹
- Kd [4]: 0.357 nM
- koff [4]: 0.000236 s⁻¹
- kon [4]: 662000 M⁻¹ s⁻¹

B2: T3.14 (anti-hu FAP/hu scLIGHT-LTb2, hu IgG1 DANG) (bispecific antibody)
heavy: B1 heavy
light: not shown
chain: not shown
notes: Knob-into-hole; single-chain heterotrimer of one human LIGHT and two human lymphotoxin beta (87-243)
- IL-8 secretion of A375 cells, EC50 (FIG. 15a) [1]: 0.0558 nM
- percent of cells bound [2]: ≥ 99%
- Kd [3]: 0.29 nM
- koff [3]: 0.000434 s⁻¹
- kon [3]: 1.5e+06 M⁻¹ s⁻¹
- Kd [4]: 9.72 nM
- koff [4]: 0.00198 s⁻¹
- kon [4]: 204000 M⁻¹ s⁻¹

Source: patent publication US20250368754A1 (KANAPH THERAPEUTICS, published 2025)
